Test results published in PMC4987126 (Molecular immunology, 2016).

Molecular target: T1, synthetic peptide of the C1q A chain, residues 14–26 (collagen region)
T1 peptide: AGRPGRRGRPGLK
Assay: ELISA

PWNASWSNKSLDDIWNC [gp41-3S, 17-residue synthetic peptide corresponding to the 3S motif of gp41]: binds.
